Measurements taken from patent US20240075137A1.

Tests used:
[1] = molecular target: human TIGIT on cells (human) (UniProt Q495A1); experiment: FACS blocking: Expi293 human TIGIT cells pre-incubated with mAb, then human PVR-m2aFc; lower gMFI = more blocking
[2] = molecular target: human TIGIT on cells (human) (UniProt Q495A1); experiment: FACS titration on Expi293 human TIGIT over-expressing cells (gMFI OE:Parental); ± 95% CI; 'Fit: Fair/Good'
[3] = molecular target: human TIGIT on cells (human) (UniProt Q495A1); experiment: FACS, Expi293 human TIGIT over-expressing cells
[4] = molecular target: mPVR (recombinant protein) (mouse); experiment: SPR/ELISA with recombinant proteins
[5] = molecular target: mPVRL2 HIS (mouse) (UniProt P32507); experiment: ELISA: soluble receptor Fc titrated on immobilized mPVRL2 HIS
[6] = molecular target: mPVRL2 HIS (mouse) (UniProt P32507); experiment: ELISA: mPVRIG-mFc titrated on mPVRL2

Sequence of human TIGIT on cells (human) (Q495A1 22-141): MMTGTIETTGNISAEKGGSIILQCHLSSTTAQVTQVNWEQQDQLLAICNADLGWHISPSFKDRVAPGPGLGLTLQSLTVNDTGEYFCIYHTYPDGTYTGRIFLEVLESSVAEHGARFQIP
Sequence of mPVRL2 HIS (mouse) (P32507 32-351 limits assumed): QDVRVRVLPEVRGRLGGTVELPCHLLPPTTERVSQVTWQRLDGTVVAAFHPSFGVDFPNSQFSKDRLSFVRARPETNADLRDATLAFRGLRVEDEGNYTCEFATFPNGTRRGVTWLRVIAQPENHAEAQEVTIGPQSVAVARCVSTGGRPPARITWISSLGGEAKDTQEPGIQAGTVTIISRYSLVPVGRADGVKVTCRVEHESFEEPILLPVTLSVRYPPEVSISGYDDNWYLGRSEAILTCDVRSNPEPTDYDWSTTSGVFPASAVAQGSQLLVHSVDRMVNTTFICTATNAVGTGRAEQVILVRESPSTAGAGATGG

Synagis hIgG4 (antibody) was tested, and the gMFI of bound PVR-m2aFc at 266 pM mAb [1] was 959, the gMFI of bound PVR-m2aFc at 1.3 nM mAb [1] was 964 and the gMFI of bound PVR-m2aFc at 6.7 nM mAb [1] was 828.

“human PVR-m2aFc (Compugen) (from UniProt P15151 21-343) (Fc fusion)” was tested, and the Kd [2] was 8.48 nM and the EC90 [3] was 158 nM.

mouse PVRIG-Fc fusion protein gave a fold lower affinity than the interaction with mPVRL2 [4] of 10 fold, an EC50 (read off the curve) [5] of 2 nM and an EC50 (read off the curve) [6] of 2 nM.
